According to paper doi:10.1101/2020.11.17.387910 (bioRxiv, 2020):

Molecular target: the molecule itself
Experiment: SAXS

B1: human P5 (PDIA6), full-length (enzyme, UniProt Q15084 20-440, looked up)
chain: LYSSSDDVIELTPSNFNREVIQSDSLWLVEFYAPWCGHCQRLTPEWKKAATALKDVVKVGAVDADKHHSLGGQYGVQGFPTIKIFGSNKNRPEDYQGGRTGEAIVDAALSALRQLVKDRLGGRSGGYSSGKQGRSDSSSKKDVIELTDDSFDKNVLDSEDVWMVEFYAPWCGHCKNLEPEWAAAASEVKEQTKGKVKLAAVDATVNQVLASRYGIRGFPTIKIFQKGESPVDYDGGRTRSDIVSRALDLFSDNAPPPELLEIINEDIAKRTCEEHQLCVVAVLPHILDTGAAGRNSYLEVLLKLADKYKKKMWGWLWTEAGAQSELETALGIGGFGYPAMAAINARKMKFALLKGSFSEQGINEFLRELSFGRGSTAPVGGGAFPTIVEREPWDGRDGELPVEDDIDLSDVELDDLGKDEL
  stoichiometry N: 2
